B1: Intersectin-2, residues 1129 to 1183; numbered along this chain, Q9NZM3 (parent)
chain: VCQVIAMYDYAANNEDELSFSKGQLINVMNKDDPDWWQGEINGVTGLFPSNYVKM

Variants of: B1
Assay: abundance fitness (aPCA) (normalised: wild type 0, dead -1); higher = more abundant; growth selection in yeast, the domain comes from the species named
Details: Homo sapiens

Abundance fitness of substitutions, site by site:
E40: D -0.045 | P -0.963 | N -0.143 | K -0.037 | S 0.003 | M -0.08 | F -0.142
V28: E -0.996 | A -0.371 | Y -0.87 | I 0.006 | M -0.155
W36: E -0.108 | C -0.003 | V -0.052 | Y -0.054
N13: A -0.024 | P -0.133 | S 0.014 | C -0.047 | Y -0.141 | F -0.092 | K 0.042
N51: C -0.044 | A -0.075 | Y -0.067 | E -0.154 | H -0.025 | Q -0.081 | R -0.026
I5: D -0.164 | R -0.147 | Q -0.085 | L -0.132 | M -0.144 | H -0.188 | G -0.457 | K -0.173 | A -0.121 | Y -0.062
L18: S -0.854 | H -0.512 | D -1.04 | A -0.715 | K -0.647
M29: D -0.077 | G -0.065 | W -0.053 | V -0.001 | K -0.075 | P -0.496 | R -0.014 | S -0.039
D32: C -0.089 | W -0.086 | P 0.084 | Q 0.046 | T -0.075
T45: L -0.031 | R -0.076 | W -0.153 | M -0.145 | N -0.062 | G -0.042
Y52: P -0.544 | F 0.15 | I -0.023 | N -0.107
Y8: W -0.052 | A -0.002 | L -0.005
L25: C -0.088 | K -0.064 | E 0.057 | D 0.024 | Y -0.115 | W -0.098 | M 0.031 | Q -0.089
E15: I -0.076 | Y -0.002 | M -0.083 | V -0.014 | A -0.03
S21: Q -0.137 | P -0.04 | K 0.002 | F -0.117 | Y -0.12 | M -0.05 | G -0.039 | R -0.02 | E -0.084 | D -0.021 | A 0.001
G43: Y -0.237 | H -0.025 | M -0.08 | T -0.128 | W -0.404
W37: C -0.516 | K -1.03 | L -0.384 | T -0.854 | G -0.826 | Q -0.699
N42: Y -0.082 | F -0.126 | D -0.16 | T -0.01 | C 0.014
V44: A -0.006 | D -0.117 | P -0.438 | L -0.033 | I 0.027 | Q -0.083 | R -0.055 | Y -0.101
F48: D -0.806 | E -0.834 | V -0.027 | H -0.937 | C -0.199 | N -1.17 | Y -0.898 | P -0.718 | S -0.775
I41: T -0.017 | N -0.159 | Q -0.085 | M -0.032 | H 0.022 | E -0.478
I26: T -0.88 | A -0.961 | R -0.951 | Y -0.657
F20: T -0.88 | L -0.079 | Q -0.844 | H -0.988 | R -0.98 | S -0.871 | K -0.921
A6: N -0.928 | Q -0.966 | F -1.03 | W -1.02
Q24: D 0.022 | L -0.199 | K -0.118 | E -0.007 | R -0.128 | H -0.154 | C -0.151
K31: W -0.138 | D -0.044 | Q -0.039 | E 0.006 | F -0.039 | H -0.148 | G -0.031
N14: D -0.089 | T -0.001 | G -0.024 | A -0.038 | Y -0.048 | F -0.08
K54: E -0.032 | I -0.123 | L -0.177 | F -0.148 | D -0.05 | Q -0.049 | P -0.507
D35: M -0.1 | W -0.145 | V -0.04 | K -0.071 | C -0.167
V53: K -0.902 | H -0.477 | I 0.065 | C -0.054 | T 0.03 | E -0.666 | Q -0.564
N27: R -0.037 | Y -0.081 | L -0.07 | E 0.039 | W -0.123 | S -0.05
D9: I -0.594 | E -0.117 | F -0.364 | N -0.039 | L -0.571 | W -0.383 | H -0.025 | S -0.069 | G -0.061
E17: V -0.145 | R -0.016 | G -0.039 | N -0.271 | K -0.089 | H 0.048
N30: D -0.087 | H -0.01 | R -0.019 | Y -0.117 | C 0.005 | V -0.045 | A -0.002
D16: W -0.117 | I 0.109 | R 0.001 | Q -0.044 | M -0.066 | Y 0.047 | N -0.068
Q3: F 0.027 | D -0.19 | T -0.047 | A -0.07 | L -0.134
Q38: D -0.024 | C -0.027 | T -0.038 | S -0.046
M7: Y -0.036 | D 0.007
A11: C -0.048 | M -0.053 | Y -0.111 | F -0.055 | N -0.016 | R -0.01 | P -0.069
M55: W -0.255 | A 0.079 | G -0.097
P34: V -0.033 | E 0.03 | Q 0.029 | G -0.028 | Y -0.147 | C -0.195 | M -0.015
C2: N 0.147 | E -0.3 | D -0.041 | S -0.006 | W -0.122 | G -0.099 | P -0.108
D33: M -0.12 | G -0.043 | S -0.037 | F -0.24
L47: S -0.011 | H -0.061 | G -0.023 | Q -0.019 | P -0.257
S50: G -0.109 | Q -0.037 | K -0.074 | T -0.084 | Y -0.128 | A -0.046 | L -0.166
S19: Q -0.217 | E -0.193 | Y -0.197
A12: W -0.685 | S -0.056 | D -0.503 | V -0.334 | P -0.144 | T -0.038
P49: K -0.017 | H -0.1 | S -0.195 | Y -0.104 | T -0.746 | F -0.358 | A -0.193
G46: D -0.799 | M -1.06 | I -1.14 | P -1.01 | T -0.788 | K -0.1 | Y -0.807 | S -0.764
Y10: F -0.084 | S -0.427 | K -0.144 | A -0.66
K22: G -0.097 | L -0.146 | A -0.027 | S -0.084 | E -0.036 | H -0.146
V4: Y 0.032 | Q -0.349
G23: P -1.06 | H 0.023 | V -0.903 | Y -0.047 | K -0.103 | A -0.161 | Q -0.181 | C -0.247
G39: I -0.942 | D -0.726 | W -1.18 | P -0.864 | Y -0.878 | Q -0.992 | A -0.699 | R -1.06 | T -0.89 | F -0.854
V1: Y -0.453 | A -0.27 | C -0.307 | L -0.206 | T 0.107 | E -0.054

Source: the Human Domainome abundance scans (Beltran et al. 2025)
